Test [1] deals with T1, His-tagged wildtype SARS-CoV-2 RBD (BEI NR52309) (SARS-CoV-2, wildtype (Wuhan-Hu-1), UniProt P0DTC2). As to the kind of experiment: BLI. For orientation: In BLI a coated tip is dipped into the sample, and binding shifts an interference pattern.
The target in test [2] is T1, His-tagged wildtype SARS-CoV-2 RBD (BEI …). The test is described as follows: crystal structure.

B1: 2-7 MB (mono-specific Multabody of specificity 2-7) (complex)
VH: QITLKESGPTLVKPTQTLTLTCTFSGFSLSTSGVGVGWIRQPPGKALEWLALIYWDDDKRYSPSLKSRLTITKDTSKNQVVLTMTNMDPVDTATYYCAHHKIERIFDYWGQGTLVTVSS
VL: SALAQPASVSGSPGQSITISCTGTSSDVGAYNYVSWYQQHPGKAPKLMIYDVSKRPSGVSNRFSGSKSGNTASLTISGLQAEDEADYYCSSYTTSSTVFGGGTKLTVL
For B1, in test [1], the binding result is “binds”.

B2: 2-7 IgG (antibody, V domains shown)
VH: QITLKESGPTLVKPTQTLTLTCTFSGFSLSTSGVGVGWIRQPPGKALEWLALIYWDDDKRYSPSLKSRLTITKDTSKNQVVLTMTNMDPVDTATYYCAHHKIERIFDYWGQGTLVTVSS
VL: SALAQPASVSGSPGQSITISCTGTSSDVGAYNYVSWYQQHPGKAPKLMIYDVSKRPSGVSNRFSGSKSGNTASLTISGLQAEDEADYYCSSYTTSSTVFGGGTKLTVL
B2: the binding result in test [1] is “binds”.

B3: 80 Fab (Fab, V domains shown)
VH: QVQLVQSGAEVKKPGSSVKVSCKASGGTFNRYAFSWVRQAPGQGLEWMGGIIPIFGTANYAQKFQGRVTITADESTSTAYMELSSLRSEDTAVYYCARSTRELPEVVDWYFDLWGRGTLVTVSS
VL: not shown
On to B3, for which the binding result in test [2] is given as “binds”.

B4: 80 IgG (antibody, V domains shown)
VH: QVQLVQSGAEVKKPGSSVKVSCKASGGTFNRYAFSWVRQAPGQGLEWMGGIIPIFGTANYAQKFQGRVTITADESTSTAYMELSSLRSEDTAVYYCARSTRELPEVVDWYFDLWGRGTLVTVSS
VL: not shown
Turning to B4, in test [1], the binding result is listed as “binds”.

B5: 80 MB (mono-specific Multabody of specificity 80) (complex)
VH: QVQLVQSGAEVKKPGSSVKVSCKASGGTFNRYAFSWVRQAPGQGLEWMGGIIPIFGTANYAQKFQGRVTITADESTSTAYMELSSLRSEDTAVYYCARSTRELPEVVDWYFDLWGRGTLVTVSS
VL: not shown
As for B5, in test [1], the binding result was “binds”.

Values taken from publication doi:10.1101/2022.10.23.513379 (bioRxiv, 2022).
